Target: microtubules prepared from bovine brain tubulin (taxol-stabilized)

B1: baculovirus-expressed S. purpuratus katanin p60 subunit with N-terminal His(6) tag (protein)
chain: HHHHHHMSVDEICENTKMGREYALLGNYETSLVYYQGVLQQIQKLLTSVHEPQRKHQWQTIRQELSQEYEHVKNITKTLNGFKSEPAAPEPAPNHRAAPFSHHQHAAKPAAAEPARDPDVWPPPTPVDHRPSPPYQRAARKDPPRRSEPSKPANRAPGNDRGGRGPSDRRGDARSGGGGRGGARGSDKDKNRGGKSDKDKKAPSGEEGDEKKFDPAGYDKDLVENLERDIVQRNPNVHWADIAGLTEAKRLLEEAVVLPLWMPDYFKGIRRPWKGVLMVGPPGTGKTMLAKAVATECGTTFFNVSSASLTSKYHGESEKLVRLLFEMARFYAPSTIFIDEIDSICSKRGTGSEHEASRRVKSELLIQMDGVSGPSAGEESSKMVMVLAATNFPWDIDEALRRRLEKRIYIPLPEIDGREQLLRINLKEVPLADDIDLKSIAEKMDGYSGADITNVCRDASMMAMRRRIQGLRPEEIRHIPKEELNQPSTPADFLLALQKVSKSVGKEDLVKYMAWMEEFGSV
ATPase activity (malachite green): p60 alone displayed a microtubule-stimulated ATPase activity
maximal basal and microtubule-stimulated ATPase rates relative to p60/p80: only 2-fold lower than those of the p60/p80 heterodimer
microtubule concentration at peak ATPase stimulation: peak at ˜2 µM tubulin
microtubule severing (fluorescence microscopy assay): Both p60 and p60/p80 severed microtubules in this assay
rate of microtubule disassembly (DAPI fluorescence assay): p60 was half as active as p60/p80

B2: co-expressed recombinant p60/p80 katanin heterodimer (baculovirus, both subunits with N-terminal His(6) tag) (protein)
chain 1: HHHHHHMSVDEICENTKMGREYALLGNYETSLVYYQGVLQQIQKLLTSVHEPQRKHQWQTIRQELSQEYEHVKNITKTLNGFKSEPAAPEPAPNHRAAPFSHHQHAAKPAAAEPARDPDVWPPPTPVDHRPSPPYQRAARKDPPRRSEPSKPANRAPGNDRGGRGPSDRRGDARSGGGGRGGARGSDKDKNRGGKSDKDKKAPSGEEGDEKKFDPAGYDKDLVENLERDIVQRNPNVHWADIAGLTEAKRLLEEAVVLPLWMPDYFKGIRRPWKGVLMVGPPGTGKTMLAKAVATECGTTFFNVSSASLTSKYHGESEKLVRLLFEMARFYAPSTIFIDEIDSICSKRGTGSEHEASRRVKSELLIQMDGVSGPSAGEESSKMVMVLAATNFPWDIDEALRRRLEKRIYIPLPEIDGREQLLRINLKEVPLADDIDLKSIAEKMDGYSGADITNVCRDASMMAMRRRIQGLRPEEIRHIPKEELNQPSTPADFLLALQKVSKSVGKEDLVKYMAWMEEFGSV
chain 2: HHHHHHMATKRAWKLQELVAHSSNVNCLALGPMSGRVMVTGGEDKKVNLWAVGKQNCIISLSGHTSPVDSVKFNSSEELVVAGSQSGTMKIYDLEPAKIVRTLTGHRNSIRCMDFHPFGEFVASGSTDTNVKLWDVRRKGCIYTYKGHSDQVNMIKFSPDGKWLVTASEDTTIKLWDLTMGKLFQEFKNHTGGVTGIEFHPNEFLLASGSSDRTVQFWDLETFQLVSSTSPGASAVRSISFHPDGSYLFCSSQDMLHAFGWEPIRCFDTFSVGWGKVADTVIASTQLIGASFNATNVSVYVADLSRMSTTGIAQEPQSQPSKTPSGGAEEVPSKPLTASGRKNFVRERPHTTSSKQRQPDVKSEPERQSPTQDEGVKDDDATDIKDPDSYAKIFSPKTRVDHSPERNAQPFPAPLDVPGAQEPEPFKHPPKPAAAAAVAPVSRAPAPSASDWQPAQANPAPNRVPAATKPVPAQEVAPSRKPDPISTIIPSDRNKPANLDMDAFLPPAHAQQAPRVNAPASRKQSDSERIEGLRKGHDSMCQVLSSRHRNLDVVRAIWTAGDAKTSVESVVNMKDQAILVDILNIMLLKKSLWNLDMCVVVLPRLKELLSSKYENYVHTSCACLKLILKNFTSLFNQNIKCPPSGIDITREERYNKCSKCYSYLIATRGYVEEKQHVSGKLGSSFRELHLLLDQLE
ATPase activity (malachite green), stimulation by microtubules: this activity was stimulated ˜10-fold by microtubules
maximal microtubule-stimulated ATPase rate: maximal microtubule-stimulated rate of 3 ATP/katanin/sec
microtubule concentration at peak ATPase stimulation: peak at ˜2 µM tubulin
microtubule severing (fluorescence microscopy assay): Both p60 and p60/p80 severed microtubules in this assay

Reference: patent publication US6429304
